Target: citrullinated human fibrinogen peptide, residues 36-52 (cit-fib) (human)
Assay: reactivity test against citrullinated peptide; arbitrary units relative to a serum pool standard; antibody at 5 ug/ml

B1: ACPA11 (antibody, V domains shown)
VH: HLQLQESGPKLVKTSETLSLNCSVSRESIVRNDKFWGWVRQPPGKGLEWIGSINPLGRTFYTTSLKDRIRISFDTSEGYFSLSVASVTAADTAIYYCATDGEGVLFDEWSQGTLVTVSS
VL: QPVMTQPPSACGTPGQRVTIPCSGNTSNIGYNIVNWYQQVPGTAPKLLIYDNDKRPSGVPDRFSASKSVTSASLVISGLQSADEADYYCAVWDDDLSGVVIGEGTKLTVL
reactivity (Au/ml at 5 ug/ml): 21 Au/ml

From patent US20160159922A1
